{"source": "paper PMC3963500", "biological_target": "PDGF-BB (UniProt P01127 82-190)", "sequence (P01127 82-190)": "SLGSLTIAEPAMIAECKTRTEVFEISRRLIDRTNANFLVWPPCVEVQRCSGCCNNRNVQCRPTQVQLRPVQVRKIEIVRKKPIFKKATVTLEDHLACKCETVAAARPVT", "assay": "microcantilever deflection", "data": [{"binder": "CACAGGCTACGGCACGTAGAGCATCACCATGATCCTGTG (structured_DNA, thiol (HS-aptamer; printed as 3'T after the sequence), immobilized on Au-coated cantilever)", "note": "[PDGF aptamer (thiolated)]", "values": [{"measurement": "binding result", "result": "binds"}]}]}
